Measured values from publication PMC10786891, “Massively parallel profiling of RNA-targeting CRISPR-Cas13d”.
Where a chain is given by its changes, count along the chain named. Numbers in names are those of the source.

B1: target 2 MT 5'PFS UGG 3'PFS AAA (mixed)
RNA 1: CACCCGUGCAAAAUUGCAGGGGUCUAAAACCUUCUCCAAAUUGUUUCAUCCU
RNA 2: GGGAAUGGAUCCACAUCUACGAAUUCUGGAGGAUGAAACAAUUUGGAGAAGAAAAGAUCGGAAGAGCACACGU
B2: target 2 MT 5'PFS UAC 3'PFS AUU (mixed)
RNA 1: B1 RNA 1
RNA 2: B1 RNA 2 with G28A, G29C, A53U, A54U
B3: target 2 MT 5'PFS UGG 3'PFS CCG (mixed)
RNA 1: B1 RNA 1
RNA 2: B1 RNA 2 with A52C, A53C, A54G
B4: target 2 MT 5'PFS CUC 3'PFS CAC (mixed)
RNA 1: B1 RNA 1
RNA 2: B1 RNA 2 with U27C, G28U, G29C, A52C, A54C
B5: target 2 MT 5'PFS UAC 3'PFS AUC (mixed)
RNA 1: B1 RNA 1
RNA 2: B1 RNA 2 with G28A, G29C, A53U, A54C
B6: target 2 MT 5'PFS GCG 3'PFS CUC (mixed)
RNA 1: B1 RNA 1
RNA 2: B1 RNA 2 with U27G, G28C, A52C, A53U, A54C
B7: target 2 MT 5'PFS UAC 3'PFS AUA (mixed)
RNA 1: B1 RNA 1
RNA 2: B1 RNA 2 with G28A, G29C, A53U
B8: target 2 MT 5'PFS GCC 3'PFS UGA (mixed)
RNA 1: B1 RNA 1
RNA 2: B1 RNA 2 with U27G, G28C, G29C, A52U, A53G
B9: target 2 MT 5'PFS UCA 3'PFS CCG (mixed)
RNA 1: B1 RNA 1
RNA 2: B1 RNA 2 with G28C, G29A, A52C, A53C, A54G
B10: target 2 MT 5'PFS CUC 3'PFS CAU (mixed)
RNA 1: B1 RNA 1
RNA 2: B1 RNA 2 with U27C, G28U, G29C, A52C, A54U
B11: target 2 MT 5'PFS GAC 3'PFS AGA (mixed)
RNA 1: B1 RNA 1
RNA 2: B1 RNA 2 with U27G, G28A, G29C, A53G
B12: target 2 MT 5'PFS GAC 3'PFS AGG (mixed)
RNA 1: B1 RNA 1
RNA 2: B1 RNA 2 with U27G, G28A, G29C, A53G, A54G
B13: target 2 MT 5'PFS CAC 3'PFS AUG (mixed)
RNA 1: B1 RNA 1
RNA 2: B1 RNA 2 with U27C, G28A, G29C, A53U, A54G
B14: target 2 MT 5'PFS GAC 3'PFS AGU (mixed)
RNA 1: B1 RNA 1
RNA 2: B1 RNA 2 with U27G, G28A, G29C, A53G, A54U
B15: target 2 MT 5'PFS GCG 3'PFS CUU (mixed)
RNA 1: B1 RNA 1
RNA 2: B1 RNA 2 with U27G, G28C, A52C, A53U, A54U
B16: target 2 MT 5'PFS UGG 3'PFS AAU (mixed)
RNA 1: B1 RNA 1
RNA 2: B1 RNA 2 with A54U
B17: target 2 MT 5'PFS CUC 3'PFS CAA (mixed)
RNA 1: B1 RNA 1
RNA 2: B1 RNA 2 with U27C, G28U, G29C, A52C
B18: target 2 MT 5'PFS CUU 3'PFS AUA (mixed)
RNA 1: B1 RNA 1
RNA 2: B1 RNA 2 with U27C, G28U, G29U, A53U
B19: target 2 MT 5'PFS CAC 3'PFS AUC (mixed)
RNA 1: B1 RNA 1
RNA 2: B1 RNA 2 with U27C, G28A, G29C, A53U, A54C
B20: target 2 MT 5'PFS GCC 3'PFS UGC (mixed)
RNA 1: B1 RNA 1
RNA 2: B1 RNA 2 with U27G, G28C, G29C, A52U, A53G, A54C
B21: target 2 MT 5'PFS AAA 3'PFS CCG (mixed)
RNA 1: B1 RNA 1
RNA 2: B1 RNA 2 with U27A, G28A, G29A, A52C, A53C, A54G
B22: target 2 MT 5'PFS UGU 3'PFS AUU (mixed)
RNA 1: B1 RNA 1
RNA 2: B1 RNA 2 with G29U, A53U, A54U
B23: target 2 MT 5'PFS AAA 3'PFS CCA (mixed)
RNA 1: B1 RNA 1
RNA 2: B1 RNA 2 with U27A, G28A, G29A, A52C, A53C
B24: target 2 MT 5'PFS AAU 3'PFS UCC (mixed)
RNA 1: B1 RNA 1
RNA 2: B1 RNA 2 with U27A, G28A, G29U, A52U, A53C, A54C
B25: target 2 MT 5'PFS GAC 3'PFS AGC (mixed)
RNA 1: B1 RNA 1
RNA 2: B1 RNA 2 with U27G, G28A, G29C, A53G, A54C
B26: target 2 MT 5'PFS CUC 3'PFS CAG (mixed)
RNA 1: B1 RNA 1
RNA 2: B1 RNA 2 with U27C, G28U, G29C, A52C, A54G
B27: target 2 MT 5'PFS UCA 3'PFS CCU (mixed)
RNA 1: B1 RNA 1
RNA 2: B1 RNA 2 with G28C, G29A, A52C, A53C, A54U
B28: target 2 MT 5'PFS AAG 3'PFS AAU (mixed)
RNA 1: B1 RNA 1
RNA 2: B1 RNA 2 with U27A, G28A, A54U
B29: target 2 MT 5'PFS AAU 3'PFS UCU (mixed)
RNA 1: B1 RNA 1
RNA 2: B1 RNA 2 with U27A, G28A, G29U, A52U, A53C, A54U
B30: target 2 MT 5'PFS AAA 3'PFS CCU (mixed)
RNA 1: B1 RNA 1
RNA 2: B1 RNA 2 with U27A, G28A, G29A, A52C, A53C, A54U
B31: target 2 MT 5'PFS UAU 3'PFS UAU (mixed)
RNA 1: B1 RNA 1
RNA 2: B1 RNA 2 with G28A, G29U, A52U, A54U
B32: target 2 MT 5'PFS CCU 3'PFS CCA (mixed)
RNA 1: B1 RNA 1
RNA 2: B1 RNA 2 with U27C, G28C, G29U, A52C, A53C
B33: target 2 MT 5'PFS UAC 3'PFS AUG (mixed)
RNA 1: B1 RNA 1
RNA 2: B1 RNA 2 with G28A, G29C, A53U, A54G
B34: target 2 MT 5'PFS UCA 3'PFS CCA (mixed)
RNA 1: B1 RNA 1
RNA 2: B1 RNA 2 with G28C, G29A, A52C, A53C
B35: target 1 insU 3' of 17,insG 3' of 2 (mixed)
RNA 1: CACCCGUGCAAAAAUGCAGGGGUCUAAAACUGAGCGGAUAACCUCUCUAUGG
RNA 2: GGGAAUGGAUCCACAUCUACGAAUUCGUACCAUAGUAGAGGUUAUCCGCUCGACCGAGAUCGGAAGAGCACACGU
B36: target 1 insU 3' of 15,insG 3' of 10 (mixed)
RNA 1: B35 RNA 1
RNA 2: GGGAAUGGAUCCACAUCUACGAAUUCGUACCAUAGAGUAGGUUGAUCCGCUCACCGAGAUCGGAAGAGCACACGU
B37: target 1 insA 3' of 19,insC 3' of 10 (mixed)
RNA 1: B35 RNA 1
RNA 2: B36 RNA 2 with G35A, A36G, G37A, U38G, G44C
B38: target 1 U3A,C4A (mixed)
RNA 1: B35 RNA 1
RNA 2: GGGAAUGGAUCCACAUCUACGAAUUCGUACCAUAGAGAGGUUAUCCGAACACCGAGAUCGGAAGAGCACACGU

Biological target: T1, EsCas13d, nuclease-dead (Eubacterium siraeum, UniProt B0MS50, R295A;H300A;R849A;H854A)
T1 sequence: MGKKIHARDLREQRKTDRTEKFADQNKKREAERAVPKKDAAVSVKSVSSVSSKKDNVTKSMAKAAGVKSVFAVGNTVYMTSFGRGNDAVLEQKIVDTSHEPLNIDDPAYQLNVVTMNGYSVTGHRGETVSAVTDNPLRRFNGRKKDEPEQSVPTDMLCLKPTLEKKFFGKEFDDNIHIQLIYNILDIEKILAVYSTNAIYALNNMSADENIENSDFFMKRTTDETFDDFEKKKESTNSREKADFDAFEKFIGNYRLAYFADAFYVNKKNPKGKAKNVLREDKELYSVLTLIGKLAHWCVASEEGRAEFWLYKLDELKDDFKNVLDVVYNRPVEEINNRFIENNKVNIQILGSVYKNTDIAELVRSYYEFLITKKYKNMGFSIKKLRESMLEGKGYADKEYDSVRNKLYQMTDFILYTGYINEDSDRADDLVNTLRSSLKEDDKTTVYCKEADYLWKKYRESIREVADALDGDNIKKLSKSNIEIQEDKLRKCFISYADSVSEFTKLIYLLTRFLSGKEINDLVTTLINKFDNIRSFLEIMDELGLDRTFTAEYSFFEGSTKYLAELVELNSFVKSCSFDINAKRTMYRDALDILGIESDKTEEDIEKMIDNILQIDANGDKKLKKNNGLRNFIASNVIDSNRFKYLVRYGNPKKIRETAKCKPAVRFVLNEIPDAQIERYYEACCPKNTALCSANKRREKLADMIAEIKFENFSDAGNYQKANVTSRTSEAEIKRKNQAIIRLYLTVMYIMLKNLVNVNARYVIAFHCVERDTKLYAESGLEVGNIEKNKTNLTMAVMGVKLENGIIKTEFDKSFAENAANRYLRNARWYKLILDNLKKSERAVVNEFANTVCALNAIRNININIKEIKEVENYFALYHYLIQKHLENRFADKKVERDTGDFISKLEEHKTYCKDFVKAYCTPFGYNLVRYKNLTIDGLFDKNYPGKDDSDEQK
Assay: crRNA (strand 1, pre-loaded); Mg2+; 40 mM Tris-HCl pH 7.5, 150 mM NaCl, 6 mM MgCl2, 1 mM DTT, 0.1% Tween-20, 0.2 mg/ml BSA; 25 C; 10 min per concentration, then washed
Details: tags: His6-TwinStrep-SUMO cleaved; N-terminal SNAP kept (SNAP-Surface 488); label: 3' end held by stalled T7 RNA polymerase

Row | Binder | Kd [nM]
1 | B1 | 3.3 ± 0.4
2 | B2 | 9.3 ± 2.9
3 | B3 | 8.6 ± 0.8
4 | B4 | 3.9 ± 0.9
5 | B5 | 7 ± 1.7
6 | B6 | 21 ± 4
7 | B7 | 4.9 ± 0.7
8 | B8 | 17 ± 5
9 | B9 | 5 ± 0.9
10 | B10 | 1.82 ± 0.19
11 | B11 | 16 ± 6
12 | B12 | 9.5 ± 0.8
13 | B13 | 1.4 ± 0.21
14 | B14 | ~43
15 | B15 | 24 ± 6
16 | B16 | 5.9 ± 0.7
17 | B17 | 1.72 ± 0.2
18 | B18 | 4.7 ± 0.7
19 | B19 | 2 ± 0.4

Row | Binder | Kd [nM]
20 | B20 | 10.9 ± 1.7
21 | B21 | 5.7 ± 0.9
22 | B22 | 11.9 ± 1.7
23 | B23 | 10 ± 2.5
24 | B24 | 11.8 ± 1.9
25 | B25 | 9.3 ± 1.3
26 | B26 | 1.93 ± 0.21
27 | B27 | ~30
28 | B28 | 3.1 ± 0.5
29 | B29 | 10.7 ± 2
30 | B30 | 34 ± 13
31 | B31 | 35 ± 8
32 | B32 | 1.72 ± 0.2
33 | B33 | 6.8 ± 1.4
34 | B34 | 10 ± 4
35 | B35 | 19.8 ± 2.5
36 | B36 | 21.6 ± 2.9
37 | B37 | 40 ± 4
38 | B38 | 8.5 ± 0.9
